Changes are numbered by the printed parent chain.
Columns and labels:
recombinant rat PDGF-BB [1] = biological target: recombinant rat PDGF-BB (rat, UniProt Q05028 74-182); test: cell-based or functional assay
Target sequence in this assay (Q05028 74-182 limits assumed): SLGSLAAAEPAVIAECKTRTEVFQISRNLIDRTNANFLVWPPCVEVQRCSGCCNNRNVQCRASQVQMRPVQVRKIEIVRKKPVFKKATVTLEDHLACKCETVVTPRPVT

[2] = biological target: T1, recombinant human VEGF-R2-Fc (human, UniProt P35968 20-764); test: competition ELISA: antibody added to coated hVEGF-R2-Fc, then biotinylated hVEGF165 (competitor)
T1 construct: Bought Fc fusion (R&D Systems cat#357-KD); also called hVEGFR2-Fc; VEGF-R2 (KDR/Flk-1); not shown: Fc part of the bought fusion protein
T1 sequence (P35968 20-764 limits assumed): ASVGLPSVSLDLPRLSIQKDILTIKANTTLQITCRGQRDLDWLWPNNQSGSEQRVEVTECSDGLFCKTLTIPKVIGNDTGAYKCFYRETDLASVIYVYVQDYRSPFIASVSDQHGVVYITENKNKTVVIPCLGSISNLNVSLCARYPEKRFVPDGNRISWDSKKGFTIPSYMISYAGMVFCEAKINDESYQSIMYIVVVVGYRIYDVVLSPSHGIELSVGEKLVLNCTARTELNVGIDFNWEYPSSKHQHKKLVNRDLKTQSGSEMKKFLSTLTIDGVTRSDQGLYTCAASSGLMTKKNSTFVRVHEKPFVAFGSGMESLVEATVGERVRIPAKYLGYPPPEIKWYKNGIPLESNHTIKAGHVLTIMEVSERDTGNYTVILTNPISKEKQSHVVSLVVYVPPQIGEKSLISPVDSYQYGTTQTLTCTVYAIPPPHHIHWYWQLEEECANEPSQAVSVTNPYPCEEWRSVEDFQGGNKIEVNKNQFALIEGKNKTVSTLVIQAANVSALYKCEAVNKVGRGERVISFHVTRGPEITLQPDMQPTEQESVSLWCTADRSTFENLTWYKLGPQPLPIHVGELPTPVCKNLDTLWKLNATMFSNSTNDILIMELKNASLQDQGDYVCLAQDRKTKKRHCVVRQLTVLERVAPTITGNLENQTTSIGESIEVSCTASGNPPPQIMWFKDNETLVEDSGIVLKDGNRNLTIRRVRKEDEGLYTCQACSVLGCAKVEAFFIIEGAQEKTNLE
Procedure: To identify molecules which could block the binding of VEGF-R2 (KDR/Flk-1) to hVEGF₁₆₅, a competition ELISA was performed. […] Plates were then washed four times with wash buffer (TBS, 0.05% Tween-20) and blocked with Superblock blocking buffer (Thermo Scientific, cat#37535). […] The samples were added to wells and incubated for 30 minutes at 25° C. with shaking. […] Following incubation, plates were washed four times with wash buffer. Streptavidin-polyHRP-40 (Fitzgerald cat#65r-s104phrp) was diluted in assay diluent (10% Superblock containing 0.05% surfactamps) and added to plates (50 μL) for 45 minutes at 25° C. with shaking. Plates were washed four times with wash buffer and developed with the addition of Enhanced K-blue TMB substrate (Neogen cat#308177). The reaction was stopped with 2N sulfuric acid (VWR, cat# BDH3500-1) and the absorbance was read at 450 nm-570 nm. A decrease in observed optical density indicates the test molecule is blocking the human VEGF-R2-Fc binding to hVEGF₁₆₅. Data was analyzed using Softmax Pro 4.8 software and IC₅₀ values calculated using a sigmoidal dose response (variable slope) fit in GraphPad Prism 5.
Humanized anti-VEGFR2 antibodies were tested for potency against hVEGFR2 in functional assay formats. The antibodies were characterized for the ability to block VEGFR2 binding to hVEGF₁₆₅ in a competition ELISA format (Example 1.22).

rat PDGF-B (PR-1645048) = biological target: T2, rat PDGF-B (PR-1645048) (rat, UniProt Q05028 74-182); test: SPR (Biacore), antibody captured by anti-human Fc, antigen injected
T2 construct: Lot 2235300; also called rat PDGF-BB; ratPDGF-BB
T2 sequence (Q05028 74-182 limits assumed): as the sequence (Q05028 74-182 limits assumed) above
Procedure: Unreacted moieties on the biosensor surface were blocked with ethanolamine. For kinetic analysis, rate equations derived from the 1:1 Langmuir binding model were fitted simultaneously to multiple antigen injections (using global fit analysis) with the use of Scrubber 2 (BioLogic Software), Biacore Biaevaluation 4.0.1 software or Biacore T100 Evaluation software. Purified antibodies or DVD-Ig molecules were diluted in running buffer for capture across goat anti-human Fc reaction surfaces. Antibodies or DVD-Ig molecules to be captured as a ligand (1 μg/ml) were injected over reaction matrices at a flow rate of 10 μl/minute. During the assay, all measurements were referenced against the capture surface alone (i.e., with no captured antibody or DVD-Ig molecule). […] The equilibrium dissociation constant KD (M) of the reaction between antibodies and the target antigen was then calculated from the kinetic rate constants by the following formula: KD=Koff/Kₒₙ. Binding was recorded as a function of time and kinetic rate constants were calculated. In this assay, on-rates as fast as 10⁶M⁻¹s⁻¹ and off-rates as slow as 10⁻⁶ s⁻¹ could be measured.

[3] = biological target: T3, recombinant human PDGF-BB (human, UniProt P01127 82-190, biotin-labelled in the binding and competition ELISAs (sites not given)); test: receptor competition ELISA: antibody pre-incubated with biotin-hPDGF-BB, binding to coated hPDGF-Rβ-Fc
T3 construct: Bought protein (CST cat#8912BF) in the ELISAs and cell assays; purified recombinant PDGF-BB in Biacore; also called huPDGF-BB; hPDGF-BB
T3 sequence (P01127 82-190 limits assumed): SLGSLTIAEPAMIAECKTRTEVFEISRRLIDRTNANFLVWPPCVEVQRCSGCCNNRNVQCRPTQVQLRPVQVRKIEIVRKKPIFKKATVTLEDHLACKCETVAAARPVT
Procedure: (§1) Plates were then washed four times with wash buffer (TBS, 0.05% Tween-20) and blocked with Superblock blocking buffer (Thermo Scientific, cat#37535). During the blocking step, supernatants, antibodies, benchmark compounds or DVD-Ig were diluted in assay diluent (10% Superblock containing 0.05% surfactamps) and an eight point titration of each sample molecule was performed. […] Following incubation, plates were washed four times with wash buffer. Detection reagent Streptavidin-polyHRP-40 (Fitzgerald, cat#65r-s104phrp) was diluted in assay diluent and added to plates (50 μL) for 45 minutes at 25° C. with shaking. Plates were washed four times with wash buffer and developed with the addition of Enhanced K-blue TMB substrate (Neogen, cat#308177). The reaction was stopped with 2N sulfuric acid (VWR, cat# BDH3500-1) and the absorbance was read at 450 nm-570 nm. […] Data was analyzed using Softmax Pro 4.8 software and IC₅₀ values calculated using a sigmoidal dose response (variable slope) fit in GraphPad Prism 5.

recombinant rat PDGF-BB [4] = biological target: recombinant rat PDGF-BB (rat, UniProt Q05028 74-182); test: cell-based or functional assay; remark: listed apart in the source
Target sequence in this assay (Q05028 74-182 limits assumed): as the sequence (Q05028 74-182 limits assumed) above

[5] = biological target: T3, recombinant human PDGF-BB; test: cell-based or functional assay
[6] = biological target: T4, recombinant human PDGF-BB (human, UniProt P01127 82-190); test: competition ELISA: blocks biotin-hPDGF-BB binding to coated hPDGF-Rβ-Fc
T4 construct: Bought (CST cat#8912BF), biotinylated for the ELISAs; Dimer of two B chains; also called huPDGF-BB; hPDGF-BB
T4 sequence (P01127 82-190 limits assumed): as the sequence (P01127 82-190 limits assumed) above
Procedure: as §1

[7] = biological target: T4, recombinant human PDGF-BB; test: cell-based or functional assay

B1: BDI-7H10-D8 (antibody, IgG2b, V domains shown)
VH: EVKLQQSGDELVRPGASVKMSCKASGYTFTDYAMHWVKQSPGQGLEWIGTIIPLIDTTSYNQKFKGKATLTADTSSNTAYMELSRLTSEDSAVYYCARDWDNNWGYFDYWGQGVMVTVSS
VL: DVVLTQTPVSLSVTLGDQASISCRSSQSLEYSDGYTYLEWYLQKPGQSPQLLIYGVSNRFSGVPDRFIGSGSGTDFTLKISRVEPEDLGVYYCFQATHDPLTFGSGTKLEIK
In the case of B1, the “Phospho-Tyr751/ratPDGF-BB Neutralization” value (recombinant rat PDGF-BB [1]) is reported as > 5 nM.

B2: hBCU-6B1.2 (antibody, V domains shown)
VH: EVQLVQSGAEVKKPGASVKVSCKASGYTFTNYGMYWVKQAPGQGLEFMGWINTETGQPTYADDFKGRFTFTLDTSTSTAYMELRSLRSDDTAVYFCARLGNNYGIWFAYWGQGTLVTVSS
VL: DIQMTQSPSSLSASVGDRVTIECRASDDLYSTLAWYQQKPGKSPKLLIFDANRLAAGVPSRFSGSGSGTDYSLTISSLQPEDVATYFCQQYNKFPWTFGGGTKVEIK
notes: Humanized anti-human VEGFR II IgG from pHybE expression vectors
B2 was tested, and the IC50 [2] was 0.34 nM.

B3: hBCU-6B1.4 (antibody, V domains shown)
VH: B2 VH with K38R, F95Y
VL: B2 VL with E22T, S72T
notes: as for B2
B3 gave an IC50 [2] of 0.335 nM.

B4: hBCU-6B1.3 (antibody, V domains shown)
VH: B2 VH with K38R, F95Y
VL: B2 VL
notes: as for B2
B4 was tested, and the IC50 [2] was 0.319 nM.

B5: hBCU-6B1.1 (antibody, V domains shown)
VH: EVQLVQSGSELKKPGASVKVSCKASGYTFTNYGMYWVKQAPGQGLEFMGWINTETGQPTYADDFKGRFVFSLDTSVSTAYLQISSLKAEDTAVYFCARLGNNYGIWFAYWGQGTLVTVSS
VL: B2 VL
notes: as for B2
For B5, the IC50 [2] was 0.474 nM.

B6: CL-33675 (antibody, V domains shown)
VH: EVTLRESGPALVKPTQTLTLTCTFSGFSLSTYGMGVGWIRQPPGKALEWLANIWWDDDKYYNPSLKNRLTISKDTSKNQVVLTMTNMDPVDTATYYCARIESSGPKYSFDYWGQGTMVTVSS
VL: EIVLTQSPGTLSLSPGERATLSCRASSGSIWYSFVSWYQQKPGQAPRLLIYADDQRASGIPDRFSGSGSGTDFTLTISRLEPEDFAVYYCQSYGINIDVVFGGGTKVEIK
notes: Converted to IgG; also called CL-33675-IgG; PR-1593725
B6 was tested, and the Kd (rat PDGF-B (PR-1645048)) was ≤ 0.00058 nM, the koff (rat PDGF-B (PR-1645048)) was 5.8e-06 s⁻¹ and the kon (rat PDGF-B (PR-1645048)) was ≥ 1e+07 M⁻¹ s⁻¹.

B7: chBDI-5G2 (antibody, human IgG1, V domains shown)
VH: QVTLKESGPGILQPSQTLSLTCTFSGFSLSTFGMGVGWIRQPSGKGLEWLANIWWDDDKYYNPSLKNRLTISKDTSNSQAFLEITNVDTADTATYYCARISTGISSYYVMDAWGQGASVTVSS
VL: QFTLTQPKSVSGSLRSTITIPCERSSGDIGDTYVSWYQQHLGRPPINVIYGNDQRPSEVSDRFSGSIDSSSNSASLTITNLQMDDEADYFCQSYDSDIDIVFGGGTKLTVL
notes: also called chimeric BDI-5G2-F9
For B7, the IC50 [3] was 1.08 nM, the “ratPDGF-BB Neutralization Potency (nM) in NIH-3T3 Cells” value (recombinant rat PDGF-BB [4]) was 0.118 nM and the “huPDGF-BB Neutralization Potency (nM) in NIH-3T3 Cells” value (“huPDGF-BB Neutralization Potency (nM)” below) [5] was 0.181 nM.

B8: BDI-5H1-F6 (antibody, IgG2b, V domains shown)
VH: B7 VH
VL: B7 VL
notes: Rat hybridoma monoclonal antibody
B8 was tested, and the IC50 [6] was 0.528 nM, the “Phospho-Tyr751/hPDGF-BB Neutralization” value [7] was 0.884 nM and the “huPDGF-BB Neutralization Potency (nM)” value [7] was 0.371 nM. The “Phospho-Tyr751/ratPDGF-BB Neutralization” value (recombinant rat PDGF-BB [1]) was 0.319 nM.

B9: BDI-9E8-E7 (antibody, IgG2b, V domains shown)
VH: QVTLKESGPGILQPSQTLSLTCTFSGFSLSTYGMGVGWIRQPSGKGLEWLANIWWDDDKYYNPSLKNRLTISKDTSNNQAFLKITNVDTADTATYYCARIESIGTTYSFDYWGQGVMVTVSS
VL: B7 VL with T32S, G51A, N52D, S96I, D97N
notes: as for B8
For B9, the IC50 [6] was 1.12 nM, the “Phospho-Tyr751/hPDGF-BB Neutralization” value [7] was 0.629 nM and the “huPDGF-BB Neutralization Potency (nM)” value [7] was 0.195 nM. For the same binder, the “Phospho-Tyr751/ratPDGF-BB Neutralization” value (recombinant rat PDGF-BB [1]) was 0.333 nM.

Reference: patent publication US20170015742A1 (published 2017)
